Measurements published in the supplement of paper PMC10201428.
± gives the standard deviation of the averaged measurements.

B1: library; a variant is named by its letters at N, in order (parent)
chain: AATGTTGTTGATGCAACCATAAAGTGATATTTAATAATTATTTATAATCAGCAACTTAACCACAAAACAACCATATATTGATATNTCACAAAACAACCATAANTTGATATTTTTGTGAATCGAGTATTTCAGCAAAACTACTGCAGTAAGAA

Experiments:
[1] = variants of: B1; experiment: relative integration efficiency (T-LR orientation) vs wild-type transposon end (log2 (normalized fold change)); transposon end mutated: left end; higher = more efficient transposition; conditions: with VchCAST RNA-guided transposition machinery (E. coli BL21(DE3) host, lacZ target)
Description: (§1)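 Pooled, barcoded VchCAST (Tn6677) mini-transposon donor libraries; each variable transposon-end sequence sits in a fixed pDonor mini-transposon context (10-bp barcode and cargo not included). Left- or right-end libraries were co-transformed with pEffector (TniQ-Cascade, TnsABC, lacZ crRNA, T7, 0.1 mM IPTG) into E. coli BL21(DE3) and grown 18 h at 37 C. T-LR and T-RL junction amplicons were sequenced; output/input barcode fold change was normalised to the mean of four wild-type barcodes and log2-transformed. Two biological replicates; zero-count/undetected variants carry floor values (-10 / -15), censored here. Barcode uncoupling by PCR recombination adds noise.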

[2] = variants of: B1; experiment: relative integration efficiency (T-RL orientation) vs wild-type transposon end (log2 (normalized fold change)); transposon end mutated: left end; higher = more efficient transposition; conditions: with VchCAST RNA-guided transposition machinery (E. coli BL21(DE3) host, lacZ target)
Description: as §1

CG A11C T12G
relative integration efficiency (log2) [1]: -1.34 ± 0.53
relative integration efficiency (log2) [2]: -0.436 ± 0.26

TG A16C G24T T32G A33C T76A T78G C87A
relative integration efficiency (log2) [1]: 0.456 ± 0.7
relative integration efficiency (log2) [2]: 0.525 ± 0.38

CG A22T T76A A102T
relative integration efficiency (log2) [1]: 0.271 ± 0.39
relative integration efficiency (log2) [2]: 0.269 ± 0.11

CA A102T T111C T113C
relative integration efficiency (log2) [1]: 0.118 ± 0.59
relative integration efficiency (log2) [2]: -0.254 ± 0.41

TG A16C G24T T32G A33C T76A T78A T84A C87A
relative integration efficiency (log2) [1]: -0.658 ± 0.78
relative integration efficiency (log2) [2]: -0.572 ± 0.34

TA G24A T30A A70C T76A T86G A102T T111C T113C
relative integration efficiency (log2) [1]: -0.456 ± 0.08
relative integration efficiency (log2) [2]: -0.229 ± 0.18

CC A23T A77T
relative integration efficiency (log2) [1]: 0.131 ± 0.37
relative integration efficiency (log2) [2]: -0.225 ± 0.1

CG A21C A22C A23C G24T
relative integration efficiency (log2) [1]: -0.914 ± 0.79
relative integration efficiency (log2) [2]: -1.03 ± 0.74

CC T104A
relative integration efficiency (log2) [1]: -0.472 ± 0.64
relative integration efficiency (log2) [2]: -0.478 ± 0.0072

CG A1G
relative integration efficiency (log2) [1]: 0.115 ± 0.63
relative integration efficiency (log2) [2]: 0.133 ± 0.095

CG A1T
relative integration efficiency (log2) [1]: 0.281 ± 0.54
relative integration efficiency (log2) [2]: 0.063 ± 0.045

CG A1C
relative integration efficiency (log2) [1]: 0.307 ± 0.19
relative integration efficiency (log2) [2]: -0.0236 ± 0.1

TA A23G G24T A33T T76A T78G C87A T104A T110A T113A
relative integration efficiency (log2) [1]: 0.283 ± 0.28
relative integration efficiency (log2) [2]: 0.0976 ± 0.22

CG A1C A2C
relative integration efficiency (log2) [1]: -0.0923 ± 0.12
relative integration efficiency (log2) [2]: -0.242 ± 0.0032

TA G24A T30A T76A T78G C87A A96C T112G T113C
relative integration efficiency (log2) [1]: 0.0921 ± 0.22
relative integration efficiency (log2) [2]: 0.299 ± 0.056

CG A15T A16T C17G C18G
relative integration efficiency (log2) [1]: -0.912 ± 0.078
relative integration efficiency (log2) [2]: -0.824 ± 0.58

CA G24A T30A A96C T112G T113C
relative integration efficiency (log2) [1]: 0.199 ± 0.4
relative integration efficiency (log2) [2]: 0.0766 ± 0.11

CG A23G G24T A33T
relative integration efficiency (log2) [1]: 0.0764 ± 0.17
relative integration efficiency (log2) [2]: -0.108 ± 0.099

TG A16C G24T T30A A70C T76A T86G
relative integration efficiency (log2) [1]: 0.235 ± 0.55
relative integration efficiency (log2) [2]: 0.0267 ± 0.24

CG A27T A81T A107T
relative integration efficiency (log2) [1]: -2.46 ± 1.4
relative integration efficiency (log2) [2]: -3.03 ± 1.3

TA T76A A77G C87T A102T T111C T113C
relative integration efficiency (log2) [1]: -0.406 ± 0.13
relative integration efficiency (log2) [2]: -0.659 ± 0.28

TA G24A T30A T76A A77G C87T T104G T113A
relative integration efficiency (log2) [1]: 0.395 ± 0.079
relative integration efficiency (log2) [2]: -0.232 ± 0.36

TA T76A T78G C87A T104G T113A
relative integration efficiency (log2) [1]: -0.127 ± 0.0086
relative integration efficiency (log2) [2]: -0.3 ± 0.22

TA T76A A77G C87T A96C T112G T113C
relative integration efficiency (log2) [1]: -0.4 ± 0.34
relative integration efficiency (log2) [2]: -0.203 ± 0.3

TA G24A T30A T76A T78G C87A A102T T111C T113C
relative integration efficiency (log2) [1]: -0.298 ± 0.65
relative integration efficiency (log2) [2]: 0.243 ± 0.089

CG A1T A2T T3A G4C
relative integration efficiency (log2) [1]: 0.144 ± 0.82
relative integration efficiency (log2) [2]: 0.164 ± 0.1

TA T76A T78A T84A C87A T104G T113A
relative integration efficiency (log2) [1]: 0.188 ± 0.023
relative integration efficiency (log2) [2]: -0.245 ± 0.21

TA G24A T30A A70C T76A T84A C87A A96C T110A T113A
relative integration efficiency (log2) [1]: 0.37 ± 0.55
relative integration efficiency (log2) [2]: 0.271 ± 0.25

CG A19T A73T A99T
relative integration efficiency (log2) [1]: -2.5 ± 0.48
relative integration efficiency (log2) [2]: -2.22 ± 0.88

CG A11T T12A
relative integration efficiency (log2) [1]: -1.18 ± 0.28
relative integration efficiency (log2) [2]: -0.325 ± 0.19

CC A22T A23T T76A A77T A102T
relative integration efficiency (log2) [1]: -0.252 ± 0.23
relative integration efficiency (log2) [2]: -0.313 ± 0.27

CA A23G G24T A33T T104A T110A T113A
relative integration efficiency (log2) [1]: -0.166 ± 0.3
relative integration efficiency (log2) [2]: -0.424 ± 0.22

CG A16C G24T T32G A33C
relative integration efficiency (log2) [1]: -0.475 ± 0.83
relative integration efficiency (log2) [2]: -0.332 ± 0.18

CG A33C A34C T35G A36C
relative integration efficiency (log2) [1]: -0.094 ± 0.018
relative integration efficiency (log2) [2]: -0.077 ± 0.049

CC A22T A23T G24C T25A T76A A77T T78A T79A A102T T104A T105A
relative integration efficiency (log2) [1]: -2.83 ± 0.82
relative integration efficiency (log2) [2]: -3 ± 1.3

TA A70C T76A T84A C87A T104A T110A T113A
relative integration efficiency (log2) [1]: 0.319 ± 0.13
relative integration efficiency (log2) [2]: -0.146 ± 0.28

TA G24A T30A A70C T76A T86G A96C T110A T113A
relative integration efficiency (log2) [1]: 0.0588 ± 0.23
relative integration efficiency (log2) [2]: -0.265 ± 0.38

TA G24A T30A T76A T78A T84A C87A A102T T111C T113C
relative integration efficiency (log2) [1]: -0.493 ± 1.1
relative integration efficiency (log2) [2]: -0.0919 ± 0.22

TA G24A T30A A70C T76A T86G T104A T110A T113A
relative integration efficiency (log2) [1]: -0.21311 ± 4.7e-05
relative integration efficiency (log2) [2]: -0.36 ± 0.27

TG A16C G24T T30A T76A A77G C87T
relative integration efficiency (log2) [1]: -0.0311 ± 0.37
relative integration efficiency (log2) [2]: -0.534 ± 0.47

TA G24A T30A A70C T76A T84A C87A A96C T112G T113C
relative integration efficiency (log2) [1]: 0.302 ± 0.58
relative integration efficiency (log2) [2]: 0.326 ± 0.17

CG A1T A2T T3A G4T T5A
relative integration efficiency (log2) [1]: -0.359 ± 0.037
relative integration efficiency (log2) [2]: -0.373 ± 0.043

CA T104G T113A
relative integration efficiency (log2) [1]: -0.00439 ± 0.14
relative integration efficiency (log2) [2]: -0.216 ± 0.19

CC A21T A22T A23T G24C A75T T76A A77T T78A A101T A102T T104A
relative integration efficiency (log2) [1]: -2.73 ± 1.6
relative integration efficiency (log2) [2]: -2.03 ± 0.58

CG A16T A70T A96T
relative integration efficiency (log2) [1]: -1.37 ± 0.86
relative integration efficiency (log2) [2]: -0.887 ± 0.43

TA A23G G24T A33T T76A T78G C87A A102T T111C T113C
relative integration efficiency (log2) [1]: -0.451 ± 0.41
relative integration efficiency (log2) [2]: -0.227 ± 0.17

TG A16C G24T T30A A70C T76A T84A C87A
relative integration efficiency (log2) [1]: -0.916 ± 0.88
relative integration efficiency (log2) [2]: -0.362 ± 0.11

CG A22C A23C
relative integration efficiency (log2) [1]: -1.74 ± 0.31
relative integration efficiency (log2) [2]: -1.42 ± 0.42

CA G24A T30A A96C T110A T113A
relative integration efficiency (log2) [1]: -0.0456 ± 0.31
relative integration efficiency (log2) [2]: -0.302 ± 0.28

CG A27T
relative integration efficiency (log2) [1]: -1.01 ± 1.3
relative integration efficiency (log2) [2]: -0.545 ± 0.55

CG A27G
relative integration efficiency (log2) [1]: -0.486 ± 0.47
relative integration efficiency (log2) [2]: -0.621 ± 0.35

CG A27C
relative integration efficiency (log2) [1]: -0.151 ± 0.13
relative integration efficiency (log2) [2]: -0.383 ± 0.25

TA A23G G24T A33T T76A T78G C87A T104G T113A
relative integration efficiency (log2) [1]: 0.453 ± 0.52
relative integration efficiency (log2) [2]: -0.0355 ± 0.21

TG A23G G24T A33T A70C T76A T84A C87A
relative integration efficiency (log2) [1]: 0.473 ± 0.22
relative integration efficiency (log2) [2]: 0.022 ± 0.35

CG A16C A70C A96C
relative integration efficiency (log2) [1]: -0.695 ± 0.11
relative integration efficiency (log2) [2]: -0.475 ± 0.19

TG A22T G24T T31C A33C T76A T78A T84A C87A
relative integration efficiency (log2) [1]: -0.618 ± 0.17
relative integration efficiency (log2) [2]: -0.5 ± 0.36

CG A36G A65G A66C
relative integration efficiency (log2) [1]: -0.205 ± 0.26
relative integration efficiency (log2) [2]: -0.491 ± 0.18
